According to patent publication US20220073650A1 (AFFIRIS, published 2022):
No end group written: not given here.

T1: peptide p6773 (human, not fully specified (residue 18))
T1 peptide: LPQPPPQAQPLLPQPQPC

T2: peptide p7562 (human, not fully specified (residue 1))
T2 peptide: CDSSEIVLD

T3: peptide p7564 (human, not fully specified (residue 1))
T3 construct: also called 'cleaved' peptide
T3 peptide: CPSDSSEIVLD

T4: peptide p7552 (human, not fully specified (residue 1))
T4 peptide: CSSEIVLD

B1: monoclonal antibody PRR13 (antibody, V domains shown)
VH: EVQLQQSAPELVKPGASVKMSCKASGYSFTDFYMKWVKQSHGKGLEWIGDIDPKNGDTFYNQKFKGRATLTVDKSSSTAYMQLNSLTTEDSAVYYCATYYGYTMDYWGQGTSVTVSS
VL: QIVLTQSPAIMSASLGERVTMTCTASSSVTSSYLHWYQQKPGSSPKLWIYSTSNLASGVPARFSGSGSGTSYSLTISSMEAEDAATYYCHQYRRPPRTFGGGTKLEIKR
notes: Mouse IgG2a from hybridoma, immunogen p6773; also called mAB PRR13; PPR13
B2: monoclonal antibody M1D1 (antibody, V domains shown)
VH: EVQLVESGGGLVQPKGSLKLSCAASGFTFNTYAMNWVRQAPGKGLEWVARIRSKSNNYATYYADSVKDRFTISRDDSQSMLYLQMNNLKTEDTAMYYCVRHGEYGNPWFAYWGQGTLVTVSA
VL: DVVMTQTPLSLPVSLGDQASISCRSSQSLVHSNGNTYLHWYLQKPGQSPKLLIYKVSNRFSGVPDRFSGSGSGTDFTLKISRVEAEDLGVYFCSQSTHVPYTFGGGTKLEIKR
notes: Typed as mouse IgM; hybridoma, immunogen p7564; also called mAB M1D1

Legend:
peptide p6773 = target: T1, peptide p6773; test: peptide ELISA
[1] = target: T5, recombinant N-terminal Huntingtin fragment recHTT610 (human, UniProt P42858 1-610); test: recHTT610 capture ELISA
T5 construct: range 1-610; Used as extract of transiently transfected HEK293 cells, captured by anti-V5 antibody on the plate or spiked into human serum; also called recombinant HTT610; recombinant Huntingtin; not shown: two C-terminal V5 tags
Experimental: Binding of antibodies to N-terminal fragment HTT610 was determined by a standard protein capture ELISA procedure using Maxisorb™ ELISA plates (Thermo; CatNr. 439454), coated with 50 μl of a 1:5000 rabbit anti V5 mAB (Sigma, CatNr. V8137), blocking with blocking buffer (PBS, 1% BSA, 0.1% Tween 20), capturing of recombinant Huntingtin from HEK cell extracts (100 ng/μl total protein) followed by incubation with several dilutions of mouse anti HTT sera (1:100; 1:300 and 1:900) or with mAB2166 as reference (diluted 1:2000; Millipore, Cat Nr. MAB2166) for 1 hour at RT. ELISA incubations, washing and detection procedures were performed according to standard procedures.

peptide p7562 = target: T2, peptide p7562; test: peptide ELISA
peptide p7564 = target: T3, peptide p7564; test: peptide ELISA
peptide p7552 = target: T4, peptide p7552; test: peptide ELISA

T5 sequence (P42858 1-610): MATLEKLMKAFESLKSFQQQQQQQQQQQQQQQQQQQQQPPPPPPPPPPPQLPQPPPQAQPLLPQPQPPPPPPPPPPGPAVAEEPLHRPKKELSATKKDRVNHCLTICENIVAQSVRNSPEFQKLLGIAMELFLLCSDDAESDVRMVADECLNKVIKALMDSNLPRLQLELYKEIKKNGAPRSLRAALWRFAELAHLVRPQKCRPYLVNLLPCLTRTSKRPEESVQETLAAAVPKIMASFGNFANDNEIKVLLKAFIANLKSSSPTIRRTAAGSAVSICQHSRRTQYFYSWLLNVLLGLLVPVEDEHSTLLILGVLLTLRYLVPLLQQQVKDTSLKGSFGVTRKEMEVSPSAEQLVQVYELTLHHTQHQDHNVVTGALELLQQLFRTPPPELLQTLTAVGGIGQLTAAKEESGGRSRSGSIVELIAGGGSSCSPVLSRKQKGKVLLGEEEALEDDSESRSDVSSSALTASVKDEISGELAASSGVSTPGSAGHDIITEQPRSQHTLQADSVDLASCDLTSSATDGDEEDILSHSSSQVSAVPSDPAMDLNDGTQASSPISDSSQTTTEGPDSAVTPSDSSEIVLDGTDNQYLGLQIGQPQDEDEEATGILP

Binder | binding result (peptide p6773) | signal to noise ratio (reHTT610-specific signal: HEK ctrl extracts) [1] | binding result (peptide p7562) | binding result (peptide p7564) | binding result (peptide p7552)
B1 | binds | ≥ 4 | – | – | –
B2 | – | – | binds | binds | binds
